Results reported in the supplement of paper PMC12042874.
± gives the uncertainty stated by the source.

assay: amyloid nucleation score (Sup35N fusion, yeast selection) (log enrichment); library NNK2; higher = more nucleation; inactive = no reads after selection
Procedure, shortened: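 Three technical output replicates were used for random libraries. Psi-negative yeast expressing peptides of 20 random codons fused to Sup35N were induced with 100 μM copper sulfate for 24 hours and grown 7 days at 30°C on medium lacking adenine and uracil, and input and output plasmid inserts were Illumina-sequenced, excluding sequences with under 100 input reads. The nucleation score is the DiMSum log enrichment of output over input reads, centred on the mode score of non-aggregating sequences.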

Substance | amyloid nucleation score
ICFIVSSFRY | 2.58 ± 0.23
ICFNDILQFTS | -0.498 ± 0.44
ICFVFF | -0.777 ± 1
ICIFIWIDASRACKPNIQCS | 5.58 ± 0.062
ICIFSSCERSMGHRRC | 0.141 ± 0.38
ICILDYND | -1.15 ± 0.76
ICRLFVR | -0.454 ± 0.31
ICSKRIFFSA | -0.772 ± 1.1
IDERATSEDSSGRKDSVTFL | -0.306 ± 0.28
IDKGSKVFTGLGLLFCSKYF | 7.2 ± 0.074
IDLNLYERFDFQFTVSVPSV | inactive
IDLWWSATHVTLLLSAPGIY | -1.09 ± 0.42
IDSADVSIVRCKTQVRRIMR | 5.62 ± 0.063
IDYVGYMKWMMV | 0.016 ± 0.38
IEGTVRYYPVSNFT | inactive
IEQFTVNLLTRRLKNSMGQN | -0.544 ± 0.79
IEQVRDECHYTDVATLIEMM | 0.675 ± 0.24
IEVRRKPSLDLKLDGEGIVR | 1.37 ± 0.32
IFDVNCPS | -0.196 ± 1.1
IFENI | inactive
IFGLNHWTVFSSPINLSTSG | inactive
IFHHPNHIHVDQFSPLLFYE | -0.64 ± 0.79

Substance | amyloid nucleation score
IFIPSFWGIFTIPM | -1.01 ± 1
IFIVYILCFFMREIFAPI | 3.77 ± 0.11
IFRLELNTIIPPSQYNASAH | 4.57 ± 0.1
IFSISLLMAQYIGVWFFRRV | inactive
IFVCAMV | 0.395 ± 0.65
IFVGIIKIVCWNNEGVDDLQ | 4.61 ± 0.063
IFVLNKQNYLRIYNVPPLLI | 5.667 ± 0.05
IGARFKFNQWTSYYIQRF | inactive
IGDYLRLELVL | 0.187 ± 0.74
IGISLSSRPCYTFFSRLRWI | -0.387 ± 0.38
IGKSCRLRA | 0.609 ± 0.46
IGLKYSLWVVGFEVRLRCAD | 3.86 ± 0.07
IGSVGTPWE | -0.042 ± 0.45
IGVSNLLCMFTLDPKGIQDG | 8.488 ± 0.056
IGVYSVWNFMMVRSADARFN | 3.4 ± 0.16
IHMWYSDG | -1.25 ± 0.75
IHRGWSWMQSRILDVGSR | 0.162 ± 0.54
IHSNEDFVRSESGVLDAYSV | -0.627 ± 0.42
IHVPIQ | -0.046 ± 0.54
IHWGLIIGSCRF | 1.56 ± 0.27
IIDYFSN | -0.953 ± 1.1
IIFDNFLEMVAILWLLVCCY | -1.66 ± 0.76

Substance | amyloid nucleation score
IIIGFWVCWNSIASWSIVGR | -1.78 ± 1.1
IIINFRVAINDWGFLSVSID | 5.515 ± 0.027
IIPQNSQDQNRDISVKAFSV | -0.937 ± 0.61
IISPVGVRMAYL | 0.176 ± 0.37
IISTIT | 1.49 ± 0.14
IITYVLLFNKFNTGVCE | 7.393 ± 0.049
IIVNMKLVDTS | 0.138 ± 1.1
IIYNKSW | 2.77 ± 0.094
IKCLYV | -0.127 ± 1
IKCWAPLNCSGGLVGHDQAV | -0.562 ± 0.44
IKMRNPSSRSSASGQQRGHV | 0.167 ± 0.26
IKQSYTYNPK | 1.87 ± 0.12
ILALNWLFSICST | 6.903 ± 0.035
ILANFFCGDRNCL | 7.128 ± 0.036
ILAVKHFRFMVGSKISGGSG | 2.15 ± 0.094
ILDCLSYQLDDVVSAI | 3.21 ± 0.046
ILGDRSRSS | 0.388 ± 0.62
ILIRLLGSRKQSWNYEIKVL | -0.645 ± 0.37
ILIRLLTKVLTMLNDMH | 0.136 ± 0.65
ILISRIFIFDNYMIYLCCCG | -0.762 ± 0.79
ILISVRNYIKSEKSRNSYHK | 7.673 ± 0.03
ILLPSFRPLRQAAAG | -0.311 ± 0.79

Substance | amyloid nucleation score
ILQVPRTFFIRSHRSSVHL | inactive
ILRCLNLYMRSIMRVELSIQ | 0.461 ± 0.8
ILSAFV | -0.16 ± 0.36
ILSNELFYLLYEW | 8.798 ± 0.079
ILVEGET | -0.263 ± 0.33
ILVNLVVVIKSSYRLSKCRF | -0.67 ± 1.1
ILWWFRVTAHAWEDETGWMW | 0.098 ± 0.23
ILYGCLLPCLHLRGHPLVLK | 0.42 ± 0.33
IMCLKFLNPTHFGCVGVCML | -1.22 ± 0.41
IMHCVHKSRILSSVTKIKEP | inactive
IMIILLVSVTKSNFTPQSMC | 2.26 ± 0.23
IMNMCISDKFSIVVSSYVRY | 0.958 ± 0.36
IMNSQVVGSFHA | -0.357 ± 0.37
IMYWRGFWLFASLFTILWWF | inactive
INFYIDIWISIRREGFAFRP | 1.97 ± 0.25
INHDFQTHVL | 0.154 ± 0.65
INLRMCGFYTSFDLNWRRKW | 4.981 ± 0.049
INNLRSCLSMY | 0.562 ± 0.57
INWCYAPRLYFNHRWWDYCG | 6.586 ± 0.054
IPFASLNEFTSATY | 3.07 ± 0.1
IPFRFDMSRSFISSTFTVRI | -0.533 ± 0.63
IPLRHVLLVMQCRPAL | 0.915 ± 0.23
